Publication PMC3662962

Substrate: O=[N+]([O-])c1ccc(OP(=O)(O)O)cc1
Assay: purified protein
Conditions: pH 8.0; 37.0 °C

B1: Rv1364c (Mycobacterium tuberculosis H37Rv) (protein)
chain: MAAEMDWDKTVGAAEDVRRIFEHIPAILVGLEGPDHRFVAVNAAYRGFSPLLDTVGQPAREVYPELEGQQIYEMLDRVYQTGEPQSGSEWRLQTDYDGSGVEERYFDFVVTPRRRADGSIEGVQLIVDDVTSRVRARQAAEARVEELSERYRNVRDSATVMQQALLAASVPVVPGADIAAEYLVAAEDTAAGGDWFDALALGDRLVLVVGDVVGHGVEAAAVMSQLRTALRMQISAGYTVVEALEAVDRFHKQVPGSKSATMCVGSLDFTSGEFQYCTAGHPPPLLVTADASARYVEPTGAGPLGSGTGFPVRSEVLNIGDAILFYTDGLIERPGRPLEASTAEFADLAASIASGSGGFVLDAPARPIDRLCSDTLELLLRSTGYNDDVTLLAMQRRAPTPPLHITLDATINAARTVRAQLREWLAEIGADHSDIADIVHAISEFVENAVEHGYATDVSKGIVVAAALAGDGNVRASVIDRGQWKDHRDGARGRGRGLAMAEALVSEARIMHGAGGTTATLTHRLSRPARFVTDTMVRRAAFQQTIDSEFVSLVESGRIVVRGDVDSTTAATLDRQIAVESRSGIAPVTIDLSAVTHLGSAGVGALAAACDRARKQGTECVLVAPPGSPAHHVLSLVQLPVVGADTEDIFAQE
  Km: 3.61 ± 0.58 mM
  Vmax: 0.09 µmol/min/mg
